Experimental data taken from the nanobody polyreactivity screen of Harvey et al. (2022).

Assay: yeast display, Sf9 membrane polyspecificity reagent, FACS + sequencing; frameworks hold sequencing errors
Outline: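 Genes from sorted yeast were amplified by colony PCR, read by MiSeq 2 × 250 sequencing and filtered on CDR length. These cells carried a synthetic nanobody library in Saccharomyces cerevisiae BJ5465 and were sorted by FACS into low and high (top ~1%) gates on anti-HA and streptavidin fluorescence. Polyreactivity is labelled according to the gate of origin.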

Row | Sequence | polyreactivity (PSR sort gate)
1 | QVQLVESGGGLVQAGGSLRLICAASGFTIWWYAMGWYRQAPGKERELVATITSGGRTYYADSVKGRFTISRDNAKNTVYLQMNSLKPEDTAVYYCAAESEVGYVYDPMYYLGQGTQVTVSS | high polyreactivity
2 | QVQLVESGVCIVQAGGSLRLSGADSGNTLIQYAMRWYRQPHGKERELVAGISGSDDSTYYADSVKGRFTISRDNAKNTVYLQMNSLKPEDTAVYYCAALSISPSRTGYYWGQGTQVTVSS | low polyreactivity
3 | QVLLVESGGGLVQAGGSLRLICAASGLIFFYYDMGWYRQAPGKERELVAAISQRGGSTYYADSLKGRFTISRDNEKNTVYLQMNSLKPEETAVYYCNVRSPASYRRYYWGQGTQVTVSS | high polyreactivity
4 | QVQLVESGGGLVQAGGSLRLSCAASGSIFRIYAMGWYRQAPGKERELVAAIRNSGRTYYADSVKGRFTISRDNAKNTVYLQMNSLKPEDTAVYYCAAVGGRLRGDRGGYWGQGTQVTVSS | high polyreactivity
5 | QVQLVESGGGLVQAGGSLRLSCAASGSTLGVYAMGWYRQAPGKERELVAAISSGGSTTYADSVKGRFTISRDNAKNTDYLQMNSLKPEDTAVYYCAATNVRGVYYWGQGTQVTVSS | high polyreactivity
6 | QVQLVESGGGLVQAGGSLSLSCAASGRNFYANTMGWYRQAPGKERELVASISYSSGSTYADSVKGRFTISRDNAKNTVYLQMNSLKPEDTAVYYCAARTYWYPRRPIYDYWGQGTQVTVSS | high polyreactivity
7 | QVQLVESGGGLVQAGGSLRLSCAASGRICVTYAIGRYRQAPGKERELVAASTYSGGSTYYADSVKGRFTISRDNAKNTVYLQMNSLKPEDTAVYYCGWTYHYHRESWGQGTQVTVSS | low polyreactivity
8 | QFQLVESGGGLVQAGGSLRLSCAASGFTFDDYDMGWYRQAPGKERELVAAISWSGGSTYYADSVKGRFTISRDNSKNTVYLQMNSLKPEDTAVYYCAAERSYGGFDYWGQGTQVSVSS | low polyreactivity
9 | QVQLVESGGGLVQAGGSLRLSCAASGSTFYYYAMGWYRQAPGKERELVAAISWRCSSTYYADSVKGRFTISRDNAKNTVYLQMNSLKPEDTAVYYCAAGYPGRVSGYLFGTRATYYYWGQGTQVTVSS | high polyreactivity
10 | QVQLVESGGGLVQAGGSLRLSCAASGRTFPHYAMGWYRQAPGKERELVAAITSGGTTNYADSVKGRFTISRDNEKNTVYLQLNSLKPEDTAVYYCNADMDLDTAWDGFVAYDYWGQGTQVTVSS | low polyreactivity
11 | QVQLVESGGGLVQAGGSLRLSCAASGRIFASYAMGWYRQAPGKERELVAAISLSGGSTYYADSVKGRFTISRDNAKNTVYLQMNSLKPEDTAVYYCNARAIGWRIYDYWGQGTQVTVSS | high polyreactivity
12 | QVQLVESGGGLVQAGGSLRLSCAASVSTFSVYAMGWYRQAPGKERELVADISENGGSTYYADSVKGLFTISRDNAKNTVYLQMNSLKPEHTAVYYCAALYHSTSHTYSYWGQGTQVTVSS | low polyreactivity
13 | QVQLVESGGGLVQAGGSLRLSCAASGSTFYYYAMGWYRQAPGKERELVAAISVRAGITYYADSVKGRFTISRDNAKNTVYLQMNSLKPEDTAVYYCAKDHWTTSYDEGDYWGQGTQVTVSS | low polyreactivity
14 | QVQLVESGGGLVQAGGSLRLSCAASGITFGLYAMGWYRQAPGKEREFVAAISRRGGSTSYADSVKGRFTISRDNAKNTVYLQMNSLKPEDTAVYYCDTSYRRTVGGYTYYWGQGTQVTVSS | high polyreactivity
15 | QVQLVESGGGLVQAGASLRISCAASGRIFGRNAMGWYRQEPGIEREFVARIRTSGGSTYNADSVKGRFTISRDNAKNTVYLQMNSLKPEDTAVYYCAAAVYTSARGYDYWGQGTQVTLSS | high polyreactivity
16 | QVHLVESGGGLVQAGGRLRLSCAASGYIFSVYAMGLYRQAPGKERELVAAISSGGSTYYADSLKGRLTISRDNAKYTVYLQMNSLKPEDTAVYYCAAESVYVYWYYVDYDYWGQGTQVTVSS | high polyreactivity
17 | QVQLVESCGGLVQAGGSLRLSCASSGRNFPVKAMGWYRQAPGKERELVAGITWSGDGSTYYADSVKGRFTISRDNAKNTVYLLMNSLKPEDTAVYYCAARLNLQGRYDYWGQGTQVTVSS | low polyreactivity
18 | QVQLVESGGGLVQAGGSLRLSCAASGSIFPYYTMGWYRQAPGKERELVAAISGSGTSTYYADSVKGRFTISRDNAKNTVYLQMISLKPEDTAVYYCAKRFRYGYVNYYYWGQGTQVTVSS | low polyreactivity
19 | QVQLVESGGGLVQAGGSLRLSCAASGSTFGRYAMGWYRQAPGKERELVAAISESDGSTYYADSVKGRFTISRDNAKNTVYLQMNSLKPEDTAVYYCAAEWTHYWWYQYDYWGQGTQVTVSS | high polyreactivity
20 | QVQLVVSGGGLVQAGGSLRLSCAASGSMLYKYAMGWYRQPPGKEREFVAAISSSGGITYYADSVKGRFTISRDNAKNTVYLQMNSLKPEDTAVYYCAARTRSQFGHGYWGQGTQVTVSS | high polyreactivity
21 | QGQLVESGGGLVQAGCSLRLSCAASGITYTPYALGWYRQAPGKAREFVASISVSGGSTYYADSVKGRFRFSRVNAKNTVYLEMNCLKPEDTAVYYCNAVSYRKHYFNSLYGYWGLGTQVTVSS | high polyreactivity
22 | QVHLVESGGVLVQAGGSLRLSCAAYGSTFSWNAMGWYRQSPWKESELVAPITTRGGSTYYADSVKGRFTISRDNAQNTVYLEMNSLKPEDTAVYDCAASYGYRGGWGPGVDYWGQCTQVTVSS | low polyreactivity

Row | Sequence | polyreactivity (PSR sort gate)
23 | QVQLVESCGGLVHAGGSLRLSCAASGRIIIFYAMGWYRQAPGKERELVASITSGASTYADSVKGRFTISRDNAKNTVYLQLNSLKPEDTAVYYCAKDYLDATPWFTWPTYSEFDYWGQGTQVTVSS | low polyreactivity
24 | QVQLVESGGGLVQAGGSLRFSCADSGSIFRYAMGWYRQAPGKERELVAGMSASGGRTYYADSVKGRFTISRDNAKNTVYLQMNSLKPEDTAVYYCNAVTREYQRPPVPRSYLYDYWGQGTQVTVSS | high polyreactivity
25 | QVQLVESGGGLVQAGGSLRLSCAASGFIFHVYAMGWYRQAPGKERELVARITSSGGNTFYADSVKGRFTISRDNAKNTVYLQMNSLKPEDTAVYYCAKSSIYTDYDYWGQGSQVTVSS | low polyreactivity
26 | QVQLAESGGGLVQAGGSLRLSCAASGSIFRLNAMGWYRQAPGKERELVAAINSGTNTYYADSVKGRFTISRDNAMNTVYLQMNSLKPEDTAVYYCAADWNDWHYDYWGQGTQVTVSS | low polyreactivity
27 | QVQLVESGGGLVQAGGSLRLSCAASGSIFVLYAMGWYRQAPGKEREFVAAISWSGDSTYYADSVKGRFTISRDNAKNTVFLQMNSLKPEDTAVYYCAVYGYRTKYGYWGQGTQVTVSS | high polyreactivity
28 | QVQLVESGGGLVQAGGSLRLSCAASGSIFRDNGMGWYRQAPGKERELVAAINSGDSTYYADSVKGRFTISRDNAKNTVYLQMNSLKPEDTAVYYCNADDRRALSQRQYDWYDYWGQGTQVTVSS | low polyreactivity
29 | QVQLVESGGGLVQAGGSLRLSCAASGRTFSGYAMGWYRQAPGKERELVAAISSGGGSTYYADSVKGRFTISRDNAKNSVYLQMNSLKPEDTAVYYCAADGYPGDYDYWGQGTQVTVSS | low polyreactivity
30 | QVQLVESGGGLVQAGGSLRLSCAASGLTFDRYGMGWYRQAPGKERELVAAIDGSGTSTYYADSVKGRFTISRDNAKNTVYLQMNSLKPEDTAVYYCNAYWTYEFPSYDYWGQGTQVTVSS | low polyreactivity
31 | QVQLVESGGGLVQAGGSLRLSCAASGRTVGYYGMGWYRQAPGKERELVAAITGSGGSTYYADSVKGRFTISRDNAKNTVYLQMNSLKPEDTAVYYCAATYLSRWTLYDYWGQGTQVTVSS | high polyreactivity
32 | QVQLVESGGGLFQAGGSLRLSCAASGSTLGSNAMGWYRQAPGKERELVAAITWSGGTTYYADSLKGRFTISRDNAKNTVYLQMNSLKPEDTAVYYCAPGQSVIYRYEFWGQGTQVTVSS | low polyreactivity
33 | QDQHVESGGGLVQAGGSLRISSAASGSIYFYNAMGWYRQAPGQERELVAAITTRGGSTYYADSVKGRFTISRDNAKNTVYLQMNSLKPEDTAVYYCARSSRGKLDYWGQGTQVTVSS | low polyreactivity
34 | QVQLVESGGGLVQAGGSLRLSCAASGRIFFRNTMGWYRQAPGKERELVAAISGSGGSTYYADSVKGRFTISRDNAKNTVYLQMNSLKPEDTAVYYCAKRWLYPISYDYWGQGTQVTVSS | high polyreactivity
35 | QVQLVESGGCLVQAGGSLRLSCAASGRIFYSYAMGWYRQAPGKERELVATISSGGSTNYADSVKGRFTISRDHAKNTVYLQMNSLKPEDTAVYFCAAADRLYWRGVIYRQYDYWGLGTQVTVSS | high polyreactivity
36 | QVQLVESGARLVQAGGSLRLSCAASGRTFSTYTMGWYRQAPGKERELVAAITSSGGGTYYADSVKGRFTISRDTAKNTVFLQMNSLKPEDTAVYYCATVRTYRPPVRRGYWGQGTQVTVSS | high polyreactivity
37 | QVQLVESGGGLVQAGGSLRLSCAASGFTFRRNAMGWYRQAPGKERELVAAINVRDGSTYYADSVKGRFTISRDNAKNTVYLQMNSLKPEDTAVYYCAAEFFQGYYWYYYWGQGTQVTVSS | high polyreactivity
38 | QVQLVESGGGLVQAGGSLRLSCAASGFTSGYYAMGWYRQAPGKESELVAAIDWSDGGTYYADSVKGRFTISRDNAKNTVYLQMNSLKPEDTAVYYCATVRYVQITRDDYWGQGTQVTVSS | low polyreactivity
39 | QVQLVESGGGLVQAGGSLRLSCAASGFTFKGNAMGWYIQAPGKERELVATITQSAGYTYYADSVKGRFTISRDNAKNTVYLQLNSLKPEDTAVYYCNADPITLYYYSWYNYWGQGTQVTVSS | low polyreactivity
40 | QVQIVESGGGLVQAGGSLRLRCAASGRTFRDNAMGWSRQAPGKERELVAAIDIDSSTYYADSVKGRFTISRDNAKNTVYLQMISLKPEDTAVYYCAAESYHDGIGFPDYEYWGQGTQVTVSS | low polyreactivity
41 | QVQLVESGGGLVQAGGSLRLSCAASGNNFYRNAMGWSRQAPGKERELVAAINSGSSTKYADSVKGRFTISRDNAKNTVYLQMNSLKPEDTAVYYCAKRRYTAIWYGYWGQGSQVTVSS | high polyreactivity
42 | QVQLVESGGGLVQAGGSLRLSCADSGITFWKYAMGWYRQAPGKERELVAAISGRGGSTYYADSVKGRFTISRDNAKNTVYLQMNSLKPEDTAVYYCAKYPGISGYNYWGQGTQVTVSS | high polyreactivity
43 | QVQLVESGGGLVQAGGSLRLSCAASGSTFVRNDMGWYRQAPGKERELVAAINGDGRTYYADSVKGRFTISRDNAKNTVYLQMNSLKPEDTAVYYCAADWKSSRSYSYEMDYWGQGTQVTVSS | low polyreactivity
